Measurements from patent US20250340890A1.

Biological target: human angiotensin converting enzyme 2 (hACE2) (human) (UniProt Q9BYF1)

Substance | Absorbance (λ450 nm), after background correction, Average (absorbance units) | Absorbance (λ450 nm), after background correction, Trial 1 (absorbance units) | Absorbance (λ450 nm), after background correction, Trial 2 (absorbance units) | Absorbance (λ450 nm), after background correction, Trial 3 (absorbance units) | Absorbance (λ450 nm), before background correction, Trial 1 (absorbance units) | Absorbance (λ450 nm), before background correction, Trial 2 (absorbance units) | Absorbance (λ450 nm), before background correction, Trial 3 (absorbance units)
His-tagged Omicron variant SARS-CoV-2 S1S2 protein (ligand) | 0.489 | 0.482 | 0.49 | 0.494 | 0.522 | 0.53 | 0.534
His-tagged Delta variant SARS-CoV-2 S1S2 protein (ligand) | 0.551 | 0.538 | 0.558 | 0.557 | 0.578 | 0.598 | 0.597
